{"source": "paper PMC5716173", "binders": {"B1": {"name": "HEX-labeled primer/template 18/25 (dsDNA)", "DNA 1": "CGCCGGGCCGAGCCGTGC", "DNA 2": "AGGTCGTGCACGGCTCGGCCCGGCG"}}, "assay_in_all_cases": "fluorescence anisotropy", "key": {"[1]": {"biological_target": "T1, PabPolB exo- (family B DNA polymerase, exonuclease-deficient) (Pyrococcus abyssi, UniProt P0CL77 1-771, D215A)", "T1 sequence": "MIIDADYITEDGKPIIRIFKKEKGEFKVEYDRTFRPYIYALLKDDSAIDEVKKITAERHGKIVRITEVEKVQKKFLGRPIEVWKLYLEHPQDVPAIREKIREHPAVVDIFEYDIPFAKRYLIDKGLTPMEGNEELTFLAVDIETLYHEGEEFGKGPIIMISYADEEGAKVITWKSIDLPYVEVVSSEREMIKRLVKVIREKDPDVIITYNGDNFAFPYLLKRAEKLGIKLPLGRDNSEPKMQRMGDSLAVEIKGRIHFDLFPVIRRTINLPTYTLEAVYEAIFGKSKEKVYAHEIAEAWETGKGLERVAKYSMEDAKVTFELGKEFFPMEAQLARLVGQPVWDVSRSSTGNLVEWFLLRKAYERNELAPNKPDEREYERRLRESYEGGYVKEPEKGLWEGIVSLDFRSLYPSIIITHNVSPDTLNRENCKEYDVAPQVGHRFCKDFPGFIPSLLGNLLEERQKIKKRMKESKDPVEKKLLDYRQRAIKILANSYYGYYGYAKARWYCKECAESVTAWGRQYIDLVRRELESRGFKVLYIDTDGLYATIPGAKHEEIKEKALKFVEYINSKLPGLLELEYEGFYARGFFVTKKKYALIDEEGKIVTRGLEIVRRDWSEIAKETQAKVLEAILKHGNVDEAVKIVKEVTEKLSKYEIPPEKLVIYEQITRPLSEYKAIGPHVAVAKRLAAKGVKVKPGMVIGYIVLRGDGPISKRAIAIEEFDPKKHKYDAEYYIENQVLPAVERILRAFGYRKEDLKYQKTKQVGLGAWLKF"}, "[2]": {"biological_target": "T1, PabPolB exo- (family B DNA polymerase, …)", "remark": "listed apart in the source"}, "[3]": {"biological_target": "T1, PabPolB exo- (family B DNA polymerase, …)", "remark": "listed apart in the source"}, "[4]": {"biological_target": "T1, PabPolB exo- (family B DNA polymerase, …)", "remark": "listed apart in the source"}, "[5]": {"biological_target": "T1, PabPolB exo- (family B DNA polymerase, …)", "remark": "listed apart in the source"}, "[6]": {"biological_target": "T1, PabPolB exo- (family B DNA polymerase, …)", "remark": "listed apart in the source"}}, "note": "Read-outs that look alike come from different tables or passages of the source.", "data": [{"binder": "B1", "values": [{"measurement": "Kd", "setting": "[1]", "value": "38 ± 6", "unit": "nM"}, {"measurement": "Kd", "setting": "[2]", "value": "43 ± 6", "unit": "nM"}, {"measurement": "Kd", "setting": "[3]", "value": "20 ± 6", "unit": "nM"}, {"measurement": "Kd", "setting": "[4]", "value": "7 ± 1", "unit": "nM"}, {"measurement": "Kd", "setting": "[5]", "value": "17 ± 2", "unit": "nM"}, {"measurement": "Kd", "setting": "[6]", "value": "25 ± 3", "unit": "nM"}]}]}
